Source: publication PMC9190012, “Heparin activation of protein Z-dependent protease inhibitor (ZPI) allosterically blocks protein Z activation through an extended heparin-binding site” (The Journal of Biological Chemistry, 2022)
Residue numbers refer to the chain shown, from its start. Numbers in names are those of the source. Blank lines part the entries; values can stand above or below the molecule they belong to.

Legend:
Format in all cases: biochemical
FXa [1] = target: T1, FXa (Homo sapiens, UniProt P00742); test: Unaccelerated ZPI–FXa reactions: kinetics and stoichiometry of inhibition; settings: for ka,app: absence of PZ, 2.5 mM CaCl2, pH 7.4, 25 °C
T1 construct: purchased Enzyme Research Laboratories
T1 sequence (P00742 235-488 limits assumed): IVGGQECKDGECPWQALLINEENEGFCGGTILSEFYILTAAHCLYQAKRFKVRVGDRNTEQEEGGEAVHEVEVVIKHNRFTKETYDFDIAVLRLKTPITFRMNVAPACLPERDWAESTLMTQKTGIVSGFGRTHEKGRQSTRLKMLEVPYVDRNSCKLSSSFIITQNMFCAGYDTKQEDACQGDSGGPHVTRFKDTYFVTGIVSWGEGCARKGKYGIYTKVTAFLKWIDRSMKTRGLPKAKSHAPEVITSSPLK
T1 sequence (P00742 41-179 limits assumed): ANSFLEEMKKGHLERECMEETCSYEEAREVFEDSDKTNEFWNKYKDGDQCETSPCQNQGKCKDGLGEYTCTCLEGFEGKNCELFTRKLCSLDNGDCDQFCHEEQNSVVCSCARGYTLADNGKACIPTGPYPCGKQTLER
Protocol: (§1) Apparent second-order rate constants for unaccelerated and H50-accelerated ZPI–FXa reactions were measured in the absence and presence of the optimal H50 concentration under pseudo–first-order conditions by analyzing full ZPI–FXa reaction progress curves over the ZPI concentration range of 10 to 900 nM with ∼0.5 nM FXa. Full reaction progress curves were also measured for ZPI–FXa reactions in the presence of PZ equimolar with ZPI, 25 μM lipid, and 5 mM CaCl2, as a function of the ZPI concentration in the range of 10 to 40 nM. Identical reaction mixtures were quenched at varying reaction times with substrate, and the time course of protease inactivation was measured from the decrease in initial rates of substrate hydrolysis. The first-order rate of decrease in protease activity with time was computer fit by a single exponential decay function with a nonzero end point and kobs obtained from the fitted exponential decay constant. Apparent second-order association rate constants (ka,app) were obtained from the slopes of linear plots of kobs versus the ZPI concentration according to the equation, kobs=kd+ka,app × [ZPI]0
(§2) In which kd represents the rate constant for ZPI–FXa complex dissociation and [ZPI]o is the total ZPI concentration. kd was fixed at the experimentally determined value of 10^−4 s^−1 for WT and ZPI mutants as described ([18]).
(§3) Fixed concentrations of FXa (50–100 nM FXa) were reacted with increasing concentrations of ZPI, ranging from a approximately threefold to sevenfold molar excess, in the absence of cofactors or in the presence of either 1 μM H50 or PZ equimolar with ZPI, 25 μM lipid, and 5 mM CaCl2, in kinetics buffer at 25 °C in reaction volumes of 50 μl. After allowing sufficient time to reach a reaction end point, based on measured second-order associate rate constants (∼5–30 min), remaining proteolytic activity was measured by reacting an aliquot (5–20 μl) of the reaction mixtures with 1 ml of 100 μM Spectrozyme fXa (American Diagnostica) containing 50 μg/ml Polybrene and 5 mM EDTA and monitoring the rate of absorbance change at 405 nm. The apparent SI was determined from the fitted abscissa intercept of a linear plot of residual protease activity against the molar ratio of inhibitor to protease ([18]). Because the ZPI–PZ complex dissociates to a small extent over the reaction time, apparent SIs depend on the time of incubation. To correct for such complex dissociation, apparent SIs were multiplied by the factor, exp (−kd × t), where kd is the measured complex dissociation rate constant of 10^−4 s^−1 and t the fixed reaction time. Simulations verified the validity of this correction for small extents of dissociation. Reported SIs are average values of at least two independent measurements at different reaction times.

FXa [2] = target: T1, FXa; test: PZ-accelerated ZPI–FXa reactions: kinetics and stoichiometry of inhibition; settings: for SI / ka,app × SI / ka,app × SI relative to WT: PZ-accelerated; for ka,app: equimolar PZ, 25 μM phospholipid, 5 mM CaCl2, pH 7.4, 25 °C; for PZ enhancement: ratio of PZ-accelerated to unaccelerated ka,app × SI
Protocol: as §1, §2, §3

FXa [3] = target: T1, FXa; test: H50 heparin-accelerated ZPI–FXa reactions: kinetics and stoichiometry of inhibition; settings: for SI / ka,app × SI / ka,app × SI relative to WT: 1 μM H50; for ka,app: 1 μM H50, 2.5 mM CaCl2, pH 7.4, 25 °C; for H50 rate enhancement: ratio of heparin-accelerated to unaccelerated ka,app × SI
Protocol: Heparin accelerating effects on the kinetics of ZPI–FXa reactions were evaluated as a function of heparin concentration under pseudo–first-order conditions (i.e., with a large molar excess of inhibitor over protease) by incubating reaction mixtures of 100 μl containing 70 nM ZPI and ∼0.5 nM FXa in the absence or presence of varying levels of H50 ranging from 10^−9 to 10^−4 M in 20 mM Tris buffer (pH 7.4), 0.1 M NaCl, 0.1% PEG 8000, 0.1 mg/ml BSA, and 2.5 mM CaCl2 at 25 °C for reaction times of 2 to 5 min. Reactions were quenched by adding 1 ml of 50 μM Pefafluor FXa substrate (Centerchem, Inc) containing 50 μg/ml polybrene and 5 mM EDTA. The initial linear rate of substrate hydrolysis was monitored at an excitation wavelength of 380 nm and an emission wavelength of 440 nm. The observed pseudo–first-order rate constant for reactions (kobs) was calculated from the equation, kobs=In([vo-v∞]/[vt-v∞])/t
where vt and v∞ are the initial velocities of protease hydrolysis of the substrate after reaction with ZPI for the fixed reaction time and after reaching the reaction end point, respectively, vo is the velocity measured in control reactions without ZPI, and t is the fixed reaction time. The dependence of kobs on heparin concentration was computer fit by nonlinear least squares analysis by the ternary complex bridging model equation ([10]).
as §1, §2
as §3, with “Simulations verified the validity of this correction for small extents of dissociation. Reported SIs are average values of at least two independent measurements at different reaction times.” left out

SI (FXa [1]): 1.7 ± 0.1 moles ZPI/mole FXa
ka,app × SI (FXa [1]): 6.3 ± 0.3 × 10^3 M^−1 s^−1
ka,app × SI relative to WT (FXa [1]): (0.39)
ka,app (FXa [1]): 3.7 ± 0.1 × 10^3 M^−1 s^−1
SI (FXa [2]): 5.6 ± 0.1 moles ZPI/mole FXa
ka,app × SI (FXa [2]): 2.9 ± 0.2 × 10^7 M^−1 s^−1
ka,app × SI relative to WT (FXa [2]): (0.66)
ka,app (FXa [2]): 5.2 ± 0.2 × 10^6 M^−1 s^−1
PZ enhancement (FXa [2]): 4603
SI (FXa [3]): 4.9 ± 0.2 moles ZPI/mole FXa
ka,app × SI (FXa [3]): 5.6 ± 0.8 × 10^5 M^−1 s^−1
ka,app × SI relative to WT (FXa [3]): (0.47)
ka,app (FXa [3]): 1.2 ± 0.1 × 10^5 M^−1 s^−1
H50 rate enhancement (FXa [3]): ~89 fold
B1: K125A/R128A: ZPI mutant of helix D residues (protein, UniProt Q9UK55 22-444, looked up, variant K125A R128A)
Protein Z-dependent protease …: LAPSPQSPETPAPQNQTSRVVQAPKEEEEDEQEASEEKASEEEKAWLMASRQQLAKETSNFGFSLLRKISMRHDGNMVFSPFGMSLAMTGLMLGATGPTETQIKRGLHLQALKPTKPGLLPSLFAGLAETLSRNLELGLTQGSFAFIHKDFDVKETFFNLSKRYFDTECVPMNFRNASQAKRLMNHYINKETRGKIPKLFDEINPETKLILVDYILFKGKWLTPFDPVFTEVDTFHLDKYKTIKVPMMYGAGKFASTFDKNFRCHVLKLPYQGNATMLVVLMEKMGDHLALEDYLTTDLVETWLRNMKTRNMEVFFPKFKLDQKYEMHELLRQMGIRRIFSPFADLSELSATGRNLQVSRVLQRTVIEVDERGTEAVAGILSEITAYSMPPVIKVDRPFHFMIYEETSGMLLFLGRVVNPTLL

SI (FXa [1]): 3.2 ± 0.1 moles ZPI/mole FXa
ka,app × SI (FXa [1]): 2.9 ± 0.2 × 10^3 M^−1 s^−1
ka,app × SI relative to WT (FXa [1]): (0.18)
ka,app (FXa [1]): 9.2 ± 0.6 × 10^2 M^−1 s^−1
SI (FXa [2]): 7.4 ± 0.3 moles ZPI/mole FXa
ka,app × SI (FXa [2]): 2.5 ± 0.2 × 10^7 M^−1 s^−1
ka,app × SI relative to WT (FXa [2]): (0.57)
ka,app (FXa [2]): 3.4 ± 0.1 × 10^6 M^−1 s^−1
PZ enhancement (FXa [2]): 8620
SI (FXa [3]): 4.0 ± 0.2 moles ZPI/mole FXa
ka,app × SI (FXa [3]): 2.6 ± 0.3 × 10^4 M^−1 s^−1
ka,app × SI relative to WT (FXa [3]): (0.02)
ka,app (FXa [3]): 6.4 ± 0.5 × 10^3 M^−1 s^−1
B2: K253A/K260A/R263A/R305A/K308A/R310A: ZPI helix H site sextuple mutant (protein, UniProt Q9UK55 22-444, looked up, variant K253A K260A R263A R305A K308A R310A)
Protein Z-dependent protease …: B1 Protein Z-dependent protease … with A125K, A128R, K253A, K260A, R263A, R305A, K308A, R310A

SI (FXa [1]): 1.9 ± 0.2 moles ZPI/mole FXa
ka,app × SI (FXa [1]): 6.3 ± 1.3 × 10^3 M^−1 s^−1
ka,app × SI relative to WT (FXa [1]): (0.39)
ka,app (FXa [1]): 3.3 ± 0.3 × 10^3 M^−1 s^−1
SI (FXa [2]): 3.3 ± 0.1 moles ZPI/mole FXa
ka,app × SI (FXa [2]): 2.1 ± 0.2 × 10^7 M^−1 s^−1
ka,app × SI relative to WT (FXa [2]): (0.48)
ka,app (FXa [2]): 6.4 ± 0.4 × 10^6 M^−1 s^−1
PZ enhancement (FXa [2]): 3317
SI (FXa [3]): 1.9 ± 0.1 moles ZPI/mole FXa
ka,app × SI (FXa [3]): 3.7 ± 0.4 × 10^5 M^−1 s^−1
ka,app × SI relative to WT (FXa [3]): (0.31)
ka,app (FXa [3]): 2.0 ± 0.1 × 10^5 M^−1 s^−1
H50 rate enhancement (FXa [3]): 59 fold
B3: K284A/R310A: ZPI helix H site double mutant (protein, UniProt Q9UK55 22-444, looked up, variant K284A R310A)
Protein Z-dependent protease …: B1 Protein Z-dependent protease … with A125K, A128R, K284A, R310A
